Common to all, as to type: cell-based, human
The test system of one assay is p21 promoter. Kind of assay: Luciferase reporter assay in T47-D cells, p21 promoter. The conditions noted are these: 30 nM progesterone for 34 hours or TReP-132 expression vector. On the procedure: (§1) FIGS. 14A and 14B: T47-D cells were cotransfected with reporter constructs containing the p21 (FIG. 14A) or p27 (FIG. 14B) promoter. Twelve hours post-transfection, the cells were incubated with 30 nM progesterone or ethanol for 34 hours. The cell lysates were then assayed for luciferase activity. Luciferase activity of the −93p21 Luc and −549p27 Luc constructs represent level 1. Arrows indicate transcription initiation sites.
(§2) The pGL2 and pGL3 reporter constructs (100 ng) were cotransfected with the indicated amounts of expression vectors and 10 ng of the control plasmid pRL.Null. The amount of plasmid was then normalized with the empty vector pcDNA3. After 12 hours of transfection, the medium was changed and cells were incubated for an additional 10 and 34 hours, respectively. During this period, T47-D cells were cultured in the presence and absence of progesterone (30 nM). The cells were then harvested and cell lysates (20 μl) were assayed for luciferase activity (Dual Luciférase™ Reporter Assay System, Promega, Madison, Wis., USA) in a Berthold LUMAT LB9501 luminometer. The transfections were performed in triplicate and each experiment was repeated at least three times.

A further assay deals with TReP-132 mRNA. Kind of assay: Quantitative RT-PCR of TReP-132 mRNA in T47-D cells. The conditions noted are these: 30 nM progesterone, 48 hours of exposure. The method, then: Total RNA from T47-D cells treated or not with progesterone was reverse transcribed and TReP-132 transcript levels were measured by quantitative RT-PCR as described in Gizard et al. (2004) using primers specific for […] and [NT]). […] Transfection was carried out by using the GeneSilencer reagent (Gene Therapy Systems, San Diego, USA) as directed by the manufacturer. Transfection efficiency was verified by FACS analysis (Fluorescence-Activated Cell Sorting) (see below). […] Statistical analyses were carried out with the nonparametric Kruskal-Wallis test.

The subject of assay [1] is p27 promoter. Kind of assay: Luciferase reporter assay in T47-D cells, p27 promoter. The conditions noted are these: 30 nM progesterone for 34 hours or TReP-132 expression vector. The method, then: as §1, §2
For the next assay, the system named is p27^KiP1 gene. The experiment in a line: RNase protection assay of CDKI transcription in HeLa cells, p27. The conditions noted are these: HeLa Tet-off cells, doxycycline removed. On the procedure: All radiolabelled probes specific for the p130, Rb, p107, p53, p57, p27, p21, p19, p18, p14/p15, L32, and GAPDH genes were labelled with [α-^32P]UTP-ribonucleotide (PerkinElmer Life Sciences, Woodbridge, Ontario, CA) in the conditions specified in the “hCC-2 Muti-Probe Template Set” kit (Pharmingen, Mississauga, Ontario, CA). Ribonuclease protection experiments were carried out with the Ribonuclease III Protection kit (Ambion, Austin, Tex.). Ten micrograms of HeLa cell RNA were hybridized with the radiolabelled probe mixture at 56° C. and then digested for 45 min at 30° C. in RNase A/RNase T1 solution diluted 1:1000 in digestion buffer. The samples were separated on a polyacrylamide-6% urea gel.

A further assay relates to HeLa cells. Kind of assay: Cell proliferation of HeLa Tet-off cells with inducible TReP-132 (HTO-GFP/TReP-132). The conditions noted are these: HTO-GFP/TReP-132 cells, Dox removed, after 4 days of culture; with Dox about 16 hours. From the text: HeLa Tet-off cells expressing the tTA transactivator under the control of tetracycline or doxycycline (Dox) (Clontech Laboratories, Palo Alto, Calif.) were stably transfected with the pBI-EGFP-TReP-132 vector or the pBI-EGFP control vector. In order to select stably transfected cells, the pcDNA6 plasmid (Invitrogen, Ontario, CA) containing the blasticidin resistance gene was cotransfected at a ratio of 1:50. For these transfections, the cells were first seeded in 6-well plates at an initial density of 1×10^5 cells per well, incubated for 24 hours, then transfected with ExGen 500 (MBI Fermentas, Flamborough, Ontario, CA) at a ratio of 5 μl of ExGen 500 for a total of 1 μg of plasmid such as described hereinabove in the section “Colony formation assays”. 48 hours post-transfection, cells were selected for 2 weeks with blasticidin (Sigma-Aldrich CA Ltd.). Clearly visible colonies were then were picked and subcloned on 12-well plates to enable growth. […]
The cell proliferation rate was determined by the cellular DNA content using the fluorochorome DABA ([…]). […] Fluorescence was measured on a Perkin-Elmer LS-2B Filter Fluorimeter at an excitation wavelength of 400 nm and an emission wavelength of 508 nm. The DNA content was calculated from a standard curve of known quantities of salmon sperm DNA.

Assay [2] relates to p27 promoter. The experiment in a line: Luciferase reporter assay in HeLa cells, p27 promoter. The conditions noted are these: 0.3 μg TReP-132 expression vector, dose-dependent. On the procedure:
as §2
TReP-132 activation of the p21, p27 and p16 cyclin kinase inhibitor promoters was studied by transfection of HeLa and T47-D cells. HeLa cells were seeded in 24-well plates at an initial density of 15,000 cells per well and transfected the next day with ExGen 500 (MBI Fermentas, Flamborough, Ontario, Canada) at a ratio of 4 μl of ExGen 500 per 0.5 μg DNA. T47-D cells were seeded at a density of 100,000 cells per well and transfected the next day with FuGENE 6 reagent (Roche Molecular Biochemicals, Laval, Canada), at a ratio of 3 μl of FuGENE per 1 μg of DNA. […]

For the molecule `CC(=O)[C@H]1CC[C@H]2[C@@H]3CCC4=CC(=O)CC[C@]4(C)[C@H]3CC[C@]12C` [progesterone, reference compound], the p21 promoter activation result in the assay on p21 promoter is reported as “activated the two promoters”. In the assay with TReP-132 mRNA, the “TReP-132 mRNA levels, peak increase” value was determined as 3 fold. Moreover, the p27 promoter activation result with p27 promoter [1] is “activated the two promoters”.

B1: TReP-132: Transcriptional Regulating Protein of 132 kDa, polypeptide comprising SEQ ID NO: 2; here expressed in cells from vectors (protein)
chain: MGDQQLYKTNHVAHGSENLFYQQPPLGVHSGLNHNYGNAVTGGGMDAPQASPISPHFPQDTRDGLGLPVGSKNLGQMDTSRQGGWGSHAGPGNHVQLRGNLANSNMMWGAPAQAEPTDGYQYTYSQASEIRTQKLTSGVLHKLDSFTQVFANQNLRIQVNNMAQVLHTQSAVMDGAPDSALRQLLSQKPMEPPAPAIPSRYQQVPQQPHPGFTGGLSKPALQVGQHPTQGHLYYDYQQPLAQVPVQGGQPLQAPQMLSQHMQQMQQHQYYPPQQQQQAGQQRISMQEIQTQPQQIRPSQPQPPPQQQQPQQLQLQQRQGSMQIPQYYQPQPMMQHLQEQQQQQMHLQPPSYHRDPHQYTPEQAHTVQLIPLGSMSQYYYQEPQQPYSHPLYQQSHLSQHQQREDSQLKTYSSDRQAQAMLSSHGDLGPPDTGMGDPASSDLTRVSSTLPHRPLLSPSGIHLNNMGPQHQQLSPSAMWPQMHLPDGRAQPGSPESSGQPKGAFGEQFDAKNKLTCSICLKEFKNLPALNGHMRSHGGMRASPNLKQEEGEKVLPPQPQPPLPPPPPPPPPPQLPPEAESLTPMVMPVSVPVKLLPPKPSSQGFTNSTVAAPSARDKPASSMSDDEMPVLEIPRKHQPSVPKAEEPLKTVQEKKKFRHRPEPLFIPPPPSYNPNPAASYSGATLYQSQLRSPRVLGDHLLLDPTHELPPYTPPPMLSPVRQGSGLFSNVLISGHGPGAHPQLPLTPLTPTPRVLLCRSNSIDGSNVTVTPGPGEQTVDVEPRINIGLRFQAEIPELQDISALAQDTHKATLVWKPWPELENHDLQQRVENLLNLCCSSALPGGGTNSEFALHSLFEAKGDVMVALEMLLLRKPVRLKCHPLANYHYAGSDKWTSLERKLFNKALATYSKDFIFVQKMVKSKTVAQCVEYYYTWKKIMRLGRKHRTRLAEIIDDCVTSEEEEELEEEEEEDPEEDRKSTKEEESEVPKSPEPPPVPVLAPTEGPPLQALGQPSGSFICEMPNCGAVFSSRQALNGHARIHGGTNQVTKARGAIPSGKQKPGGTQSGYCSVKSSPSHSTTSGETDPTTIFPCKECGKVFFKIKSRNAHMKTHRQQEEQQRQKAQKAAFAAEMAATIERTTGPVGAPGLLPLDQLSLIKPIKDVDILDDDVVQQLGGVMEEAEVVDTDLLLDDQDSVLLQGDAEL
Consider B1, for which the p27 gene transcription result in the assay on p27^KiP1 gene is “induction”. Further, the doubling time result in the assay with HeLa cells is listed as “approximately 60 hours”. The p21 promoter activation entry in the assay on p21 promoter is “activated the two promoters”. Moreover, the p27 promoter induction entry in the assay on p27 promoter [2] is listed as “approximately 7 fold”. Also, the p27 promoter activation result with p27 promoter [1] is “activated the two promoters”.
